What was measured:
[1] = assay type: in vitro ADME, hairless mice
Protocol: Freshly-prepared skins from hairless mice were mounted on small rings. To each mounted skin, a 5 μl sample of ^125 I-labeled BBI or BBIssPal at a concentration of 0.5 mg/ml was applied to an area of 0.38 cm^2. Two pieces of skin were used per treatment. The skins were kept at room temperature (23° C.) in a humidified environment. After 30 minutes, the surface of the skins was first rinsed carefully with PBS; subsequently, the skins were unmounted and soaked twice in 100 ml of PBS. The skins were then blotted with filter papers and counted in a gamma counter. The amount of BBI retained on the skins was calculated using the specific radioactivity of the labeled BBI or BBIssPal. The absorption of BBI and BBIssPal into the mouse skins was 0.14 and 1.6 μg/cm^2, respectively.

[2] = tested on: C3H 10T1/2(clone 8) cells; test: In vitro transformation assay (MCA-induced); assay type: cell-based
Protocol: Transformation assays were carried out using C3H 10T1/2(clone 8) cells according to the published recommendations [Reznikoff, C. A., et al., Cancer. Res., 33:3239-3249 (1973); Reznikoff, C. A., et al., Cancer. Res., 33:3231-3238 (1973)]. Stock cultures of mycoplasma-free cells were maintained by passing 50,000 cells per 75 cm^2 flask every seven days. Using this schedule, the cells were always passed approximately 2 days before reaching confluence. The stock culture was grown in Eagle's basal medium supplemented with 10% FBS, penicillin (100 units), and streptomycin (100 μg) and used for the transformation assays at passages of 9 to 14. The cells were passed by treating the stock cells with trypsin (0.1%) in PBS for 5 min and quenching the trypsin with 5 ml of the medium. This procedure was adapted to minimize spontaneous transformation in the stock cultures and maximize the plating efficiency in the petri dishes. The FBS stock used in the cultures was pre-screened to ensure that the serum was able to support the expression and the growth of the transformed cells.
For the transformation assays, C3H 10T1/2 cells (1000/dish) were seeded into 60 mm petri dishes and allowed to grow in a humidified 5% CO2 atmosphere in Eagle's basal medium, supplemented with 10% FBS, penicillin (100 units), and streptomycin (100 μg), for 24 hr. Subsequently, the cells were initiated by treatment with 25 μl of the 3-methylcholanthrene (MCA) in acetone stock solution ([…]) to a final concentration of 1 μg/ml of MCA (5 μg/5 ml). The cells were allowed to grow in the presence of the carcinogen or solvent for 24 hr, and the medium in each dish was then replaced with fresh medium containing no carcinogen or solvent. The medium in the dishes was replaced twice per week for the first two weeks of the assay, and thereafter once a week for the remainder four weeks of the assay. In the experiments designed to determine the transformation inhibitory activity of the conjugates, the cells were maintained in the medium containing the conjugates (1 μg/ml) for the first three weeks of the assay; thereafter, the cells were maintained in medium containing no added conjugates.
Six weeks after the carcinogen treatment, the cells were inspected under a microscope for adherence to the culture dishes and were washed with PBS and then fixed in 100% methanol. The fixed monolayers were then stained with Giemsa stain. Twenty dishes per group were treated in each experiment. In addition to the test groups, all the transformation assays contained at least three other groups: negative control (not treated with carcinogen or solvent), acetone control (treated with 25 μl of acetone), and positive control [treated with MCA (1 μg/ml) in 25 μl of acetone]. The transformed foci (>3 mm in diameter) in the plates were studied under a microscope and classified according to published guidelines as types I, II, or III [Landolph, J. R., Transfomatin assay of established cell lines: Mechanism and Application (ed. Kakunaga, T., and Yamasaki, H.) IARC Scientific Publications, Lyon, France pp. 185-201 (1985)]. Briefly, type III foci were dense, multilayered, basophilic, areas of cell growth which stained to a deep blue color with Giemsa and had rough crisscrossed edges. Type II foci were also dense, multilayered, areas of cell growth, but were stained to a purple color with Giemsa and had smoother, more defined edges compared to Type III foci. Type I foci were not scored in the assay.
BBI, either as the free protein or in conjugated form to palmitic or oleic acid, was added to the cultures at 1.0 μg/ml for the first three weeks of the transformation assay period starting immediately after the MCA treatment. MCA-treated cells were exposed to 3-methylcholanthrene, dissolved in 25 μl of acetone, at a concentration of 1 μg/ml for 24 hr. Acetone-treated cells were exposed to 25 μl of acetone for 24 hr only. […]

C3H 10T1/2 cells = test: Plating efficiency; assay type: cell-based
Protocol: The plating efficiency (PE) of the cells was also studied in conjunction with each of the transformation assays. To determine the PE of the cells in the different treatment groups, cells (200 cells/dish) were seeded into three 60-mm petri dishes per experiment group and treated in the identical manner as the transformation assay cells. The cells in these assays were terminated at 10 days, fixed with 100% methanol, and stained with giemsa; the colonies of 50 cells or more visible under a microscope were then counted. The plating efficiency is defined as the (number of colonies/number of cells seeded)×100%.

[3] = set-up: species or system CF-1 mice; details: mouse, in vivo, iv, 3 mg/kg
Protocol: Female CF-1 mice, […], weighing 20-25 g each, with free access to food and water prior to the experiments, were used for the animal experiments. ^125 I-BBI (3 mg/kg), as native-BBI or as BBIssPal or BBIssOleic conjugate, was administered to the animals via the tail vein. At 0.5, 3, and 24 hr post-injection, 3 animals from each experiment group were sacrificed and their blood (200 μl), the kidneys, the lungs, and the liver were removed, rinsed in ice-cold PBS, and assayed for accumulated radioactivity. The weights of the organs were recorded and used to adjust the concentration of the conjugates in the organs.

[4] = MCA 1 μg/ml 24 hr, conjugates 1.0 μg/ml first three weeks, scored at six weeks

B1: BBIssPal: the palmityl disulfide conjugate of BBI (conjugate, UniProt P01055 40-110, looked up)
Bowman-Birk type proteinase …: DDESSKPCCDQCACTKSNPPQCRCSDMRLNSCHSACKSCICALSYPAQCFCVDITDFCYEPCKPSEDDKEN
modifications: palmityl disulfide; 125I
notes: the palmityl disulfide conjugate of BBI
**Q.** Which “Increase of BBI absorption into the skin” value [1] does the source give for B1 here?
**A.** more than 10 fold

**Q.** What about the “Retention of anti-transformation activity of BBI” value ([2]; 1.0 μg/ml) of the same molecule?
**A.** retained the original biological activity of BBI

**Q.** And the “Transformed foci” value ([2]; MCA 1 μg/ml 24 hr, conjugates 1.0 μg/ml first three weeks)?
**A.** one type II focus out of the 20 dishes

**Q.** And the “Fraction of dishes containing transformed foci” value [2, 4]?
**A.** 0.05

**Q.** And the “No. of dishes with transformed foci/No. of dishes” value [2, 4]?
**A.** 1/20

**Q.** What about the “Plating Efficiency” value (C3H 10T1/2 cells) of the same molecule?
**A.** 23 ± 3.0%

**Q.** And the “Blood levels and removal from circulation” value [3]?
**A.** accumulated in the blood at a relatively high level

**Q.** What about the “Kidney accumulation” value [3] of the same molecule?
**A.** BBIssPal was not

**Q.** What about the “Kidney clearance, fold lower than native-BBI” value [3] of the same molecule?
**A.** about 4 fold

**Q.** And the “Liver accumulation, fold higher than BBI” value [3]?
**A.** approximately 5 fold

**Q.** What about the “Lung accumulation/levels, fold higher than BBI” value [3] of the same molecule?
**A.** approximately 2 fold

**Q.** What about the “Retention in the liver” value [3] of the same molecule?
**A.** remained high in the liver even at 24 hr post-injection

Reference: patent US6093692A, “Method and compositions for lipidization of hydrophilic molecules” (The University of Southern California, priority 1997, dated 2000)
